Experimental data as given in the supplement of paper PMC11865577.

Test system: TO-N3 (biotin conjugate)
Experiment: pull-down binding Z-score (relative to library population); higher = stronger binding
Conditions: RNA library: Library-2
Method in brief: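 Streptavidin beads bearing 100 pmol of a biotin-conjugated small molecule were incubated for 60 min at 25 °C with 1 μg of heat-folded, Cy5- or Cy3-end-labelled RNA library in phosphate/NaCl/KCl buffer. Hot SDS eluted the RNA that stayed bound after three washes, and this RNA was hybridised for 20 h at 55.5 °C to a DNA barcode microarray. Binding was expressed as a Z-score against the library mean and standard deviation, after subtraction of a beads-only signal and trimmed averaging of barcoded replicate probes.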

Sequence	pull-down binding Z-score
AAAAACACCCAAGAAGUUUUU	-0.802
AAAAAUCUUAGGGAAUUUGUGUUUAAGAAUAUUGAUGGUUAUUUUAAAAUAUAUUCUAAGCACACGCCUAUUAAUUUAGUGCGUGAUCUCCCUCAGGGUUUUU	-0.959
AAACCCGGUAAUUUUAACAAAGACUUCUAUGACUUUGCUGUGUCUAAGGGUUU [SHAPE_invivo_SARS-CoV-2_Motif_278]	-0.677
AAACCUAAUGAAUUAUCUAGAGUAUUAGGUUU [SHAPE_invitro_SARS-CoV-2_Motif_132]	-0.985
AAACGAACUAAAUAUUAUAUUAGUUUUUCUGUUU	-0.211
AAACUCAAACCCGUCCUUGAUUGGCUUGAAGAGAAGUUUAAGGAAGGUGUAGAGUUU	-0.588
AAACUUGUGCCCUUUUGGUGAAGUUUUUAACGCCACCAGAUUUGCAUCUGUUU [SHAPE_invivo_SARS-CoV-2_Motif_425]	-1.3
AAAGGACUGGUAUGAUUUUGUAGAAAACCCAGAUAUAUUACGCGUAUACGCCAACUUAGGUGAACGUGUACGCCAAGCUUU	-0.193
AAAGUGCAGUGAAAAGAACAAUCAAGGGUACACACCACUGGUUGUUACUCACAAUUUUGACUUCACUUU	-0.172
AAAGUGCUUUUGUUAAUUUAAAACAAUUACCAUUUU [SHAPE_invivo_SARS-CoV-2_Motif_363]	-1.18
AAAUAAGUACGAUACUUACCUG [U1snRNP5ss-3]	-0.0474
AAAUAAGUAUGAUACUUACCUG [U1snRNP5ss-4]	-0.506
AAAUUACCAUUUCAUCUUUUAAAUGGGAUUU	-0.0633
AAAUUCUUGGAACUGUUUCUUGGAAUUU	-1.22
AAAUUGCCGAUAAGUAUGUCCGCAAUUU	-0.683
AAAUUUACAAAACACCACCAAUUAAAGAUUUUGGUGGUUUUAAUUU [DMSMaPseq_invitro_SARS-CoV-2_Motif_425]	1.06
AAAUUUACAAGAAUUU [SHAPE_invivo_SARS-CoV-2_Motif_380]	-0.556
AAAUUUUUGGCUUUGUGUGCUGACUCUAUCAUUAUUGGUGGAGCUAAACUUAAAGCCUUGAAUUU [SHAPE_invivo_SARS-CoV-2_Motif_45]	-0.00867
AACAAAUGUGUCAAUUUCAACUUCAAUGGUUUAACAGGCACAGGUGUU	-0.754
AACACCAGUUUACUCAUUCUUACCUGGUGUU	-0.829
AACACUUCCCACAGAAGUGUU	0.0543
AACAGCAGACAACCCUUAAGGGUGUAGAAGCUGUU	-1.19
AACAGGAGUCACCUUUUGUU	-0.267
AACAUUAACCUCCACACGCAAGUUGUGGACAUGUCAAUGACAUAUGGACAACAGUUUGGUCCAACUUAUUUGGAUGGAGCUGAUGUU	-1.13

Sequence	pull-down binding Z-score
AACAUUUACUUAUGCAUCAGCAUUGUGGGAAAUCCAACAGGUUGUAGAUGCAGAUAGUAAAAUUGUU [DMSMaPseq_invitro_SARS-CoV-2_Motif_222]	-0.126
AACCAGUUAACUGGUU [SHAPE_invivo_SARS-CoV-2_Motif_126]	0.00533
AACCAUACAGGUGUUGUUGGAGAAGGUU [DMSMaPseq_invitro_SARS-CoV-2_Motif_31]	-0.0691
AACCCUCACCUUAUGGGUU	-0.946
AACGAACUUUAAAAUCUGUGUGGCUGUCACUCGGCUGCAUGCUUAGUGCACUCACGCAGUAUAAUUAAUAACUAAUUACUGUCGUU	-0.781
AACGGGGCGGGCCCUGGGCGGGGUAA [G4_2A2_VEGF-Pu22-mt2]	7.22
AACGGGGCGGGCCGGGGGCGGGGUAA [G4_2A2_VEGF-Pu22]	6.62
AACGGGGCGGGCCUCGGGCGGGGUAA [G4_2A2_VEGF-Pu22-mt3]	6.92
AACGGGGCGGGCCUGGGCGGGGUAA [G4_2A2_VEGF-Pu22-del]	7.15
AACGGGGCGGGCCUUGGGCGGGGUAA [G4_2A2_VEGF-Pu22-mt]	7.05
AACUACUAUUCAAACAAUUGUUGAGGUUCAACCUCAAUUAGAGAUGGAACUUACACCAGUUGUUCAGACUAUUGAAGUGAAUAGUUUUAGUGGUU	-0.383
AACUGAAAGUAAACCUUCAGUU	-0.401
AACUGCUUUUGGCUUAGUUGCAGAGUGGUU	-0.115
AACUGGUAAUACACUUCAGUGUAUAAUGCUAGUU	-1.55
AACUGUGAUGUUGUAAUAGGAAUUGUCAACAACACAGUU	-0.618
AACUUCUUAAGAGUGCUUAUGAAAAUUUUAAUCAGCACGAAGUU	-0.246
AACUUUAAUGUU [SHAPE_invitro_SARS-CoV-2_Motif_263]	0.00196
AACUUUAGCUUGUUUUGUGCUUGCUGCUGUU	0.34
AAGAAAGUUGAUGGUGUUGUCCAACAAUUACCUGAAACUUACUU [DMSMaPseq_invitro_SARS-CoV-2_Motif_358]	-1.34
AAGAAGCUGCGCUGUGCACCUUUUU [DMSMaPseq_invitro_SARS-CoV-2_Motif_178]	-0.0759
AAGAAGGUCAAAUCAAUGAUAUGAUUUUAUCUCUUCUU	-0.543
AAGACUCAUCUCUAUGAUGGGUUUU	-1.34
AAGAGAAAGUCAACAUCAAUAUUGUUGGUGACUUUAAACUU	0.557
AAGCUGAUGAGUACGAACUUAUGUACUCAUUCGUUU	-0.877

Sequence	pull-down binding Z-score
AAGGAGCUGGUGGCCAUAGUUACGGCGCCGAUCUAAAGUCAUUUGACUUAGGCGACGAGCUUGGCACUGAUCCUU [DMSMaPseq_invitro_SARS-CoV-2_Motif_14]	0.349
AAGGAUGCUACUCCUU	-1.32
AAGGCUGAUGAAACUCAAGCCUU	-0.413
AAGGGAGGGGCGGGUCGGGAA [G4_2A2_NRAS]	7.02
AAGGGGGCCGUGGGGUGGGAGCUGGGGAA [G4_2A2_BCL2]	6.6
AAGGUAAAACCAACAGUGGUUGUUAAUGCAGCCAAUGUUUACCUU [DMSMaPseq_invitro_SARS-CoV-2_Motif_60]	-0.792
AAGGUAAGAGGGAUACUUACCUG [U1snRNP5ss-26]	-0.673
AAGGUACAGCAGAUACUUACCUG [U1snRNP5ss-22]	-0.213
AAGUGCUUUUGUUAAUUUAAAACAAUUACCAUUU [SHAPE_invitro_SARS-CoV-2_Motif_354]	-0.977
AAGUUAAUUUUCCUCUGGCUGUUAUGGCCAGUAACUU [SHAPE_invivo_SARS-CoV-2_Motif_506]	-1.02
AAGUUUGUUCGCAUUCAACCAGGACAGACUU [DMSMaPseq_invitro_SARS-CoV-2_Motif_187]	1.09
AAUAACUUACCUUUUAAGUUGACAUGUGCAACUACUAGACAAGUUGUU	-1.21
AAUAGAAGAAUUAUUCUAUU [SHAPE_invitro_SARS-CoV-2_Motif_349]	-0.867
AAUAUUGCUUUGCUUGUACAGUAAGUGACAACAGAUGUUUCAUCUCGUUGACUUUCAGGUUACUAUAGCAGAGAUAUU [DMSMaPseq_invitro_SARS-CoV-2_Motif_488]	-0.0703
AAUCAAAAAGAGUUGAUU [DMSMaPseq_invitro_SARS-CoV-2_Motif_439]	-0.416
AAUCAUACAUCACCAGAUGUUGAUU [SHAPE_invitro_SARS-CoV-2_Motif_454]	-0.814
AAUGAGUUUUACGCAUAUUUGCGUAAACAUU	-1.36
AAUGUAGUAGAAUUAUACCUGCACGUGCUCGUGUAGAGUGUUUUGAUAAAUUCAAAGUGAAUUCAACAUUAGAACAGUAUGUCUUUUGUACUGUAAAUGCAUU	0.182
AAUGUUUUAUUCUCUACAGUGUUCCCACUUACAAGUUUUGGACCACUAGUGAGAAAAAUAUU [DMSMaPseq_invitro_SARS-CoV-2_Motif_260]	-0.882
AAUUAUAAAUUACCAGAUGAUUUUACAGGCUGCGUUAUAGCUUGGAAUUCUAACAAUCUUGAUUCUAAGGUUGGUGGUAAUUAUAAUU	-0.993
AAUUAUGAAGAUUUACUCAUUCGUAAGUCUAAUCAUAAUU	-0.429
AAUUGAUUCUUACUUUGUAGUUAAGAGACACACUUUCUCUAACUACCAACAUGAAGAAACAAUU	0.281
ACAACAACCAUAAAACCAGUUACUUAUAAAUUGGAUGGUGUUGU	-1.03
